Data from the Immune Epitope Database (IEDB).

Columns and labels:
HLA-A*26:01 = test: IEDB peptide-MHC binding, purified MHC/direct/fluorescence; filed as Kd, often an IC50 or EC50 that approximates it; ≥ and ≤ were set here for values at or beyond the usual limits of such assays
HLA-A*23:01 = test: as above; settings: source organism: Salmonella enterica subsp. enterica serovar Typhimurium str. LT2
HLA-A*02:12 = test: as above
HLA-A*24:03 = test: as above
HLA-A*69:01 [1] = test: as above; settings: source organism: Salmonella enterica subsp. enterica serovar Typhimurium str. LT2
HLA-B*15:17 = test: as above; settings: source organism: Salmonella enterica subsp. enterica serovar Typhimurium str. LT2
HLA-B*18:01 = test: as above
HLA-A*02:11 = test: as above
HLA-A*02:19 = test: as above
HLA-A*68:02 = test: as above
HLA-B*57:01 [2] = test: as above; settings: source organism: Salmonella enterica subsp. enterica serovar Typhimurium str. LT2
HLA-A*03:01 [3] = test: as above
HLA-B*51:01 [4] = test: as above
HLA-A*02:01 [5] = test: as above
HLA-A*02:16 = test: as above
HLA-A*02:03 = test: as above
HLA-B*27:03 [6] = test: as above
HLA-A*29:02 = test: as above
HLA-B*46:01 [7] = test: as above
HLA-B*15:01 [8] = test: as above
HLA-C*03:03 = test: as above
HLA-B*39:01 [9] = test: as above; settings: source organism: Mycobacterium tuberculosis str. Haarlem
HLA-C*08:02 = test: as above
HLA-B*58:01 = test: IEDB peptide-MHC binding, purified MHC/competitive/fluorescence; filed as Kd, often an IC50 or EC50 that approximates it; ≥ and ≤ were set here for values at or beyond the usual limits of such assays; settings: source organism: Yersinia pestis Nepal516
HLA-A*01:01 [10] = test: as above; settings: source organism: Yersinia pestis Nepal516
HLA-B*51:01 [11] = test: as above
HLA-A*02:01 [12] = test: as above
HLA-B*15:42 = test: as above
HLA-B*83:01 = test: as above; settings: source organism: Salmonella enterica subsp. enterica serovar Typhi
HLA-B*45:06 = test: as above
HLA-A*31:01 = test: as above; settings: source organism: Salmonella enterica subsp. enterica serovar Typhi
HLA-A*68:23 = test: as above; settings: source organism: Salmonella enterica subsp. enterica serovar Typhi
HLA-C*04:01 = test: as above
HLA-A*03:01 [13] = test: as above; settings: source organism: Salmonella enterica subsp. enterica serovar Typhi
HLA-B*15:01 [14] = test: as above; settings: source organism: Salmonella enterica subsp. enterica serovar Typhi
HLA-B*07:02 = test: IEDB peptide-MHC binding, purified MHC/direct/fluorescence; filed as Kd, often an IC50 or EC50 that approximates it; ≥ and ≤ were set here for values at or beyond the usual limits of such assays; settings: source organism: Orthohantavirus hantanense
HLA-A*01:01 [15] = test: IEDB peptide-MHC binding, purified MHC/competitive/fluorescence; ≥ and ≤ were set here for values at or beyond the usual limits of such assays; settings: source organism: Sudan ebolavirus
HLA-A*02:01 [16] = test: as above; settings: source organism: Sudan ebolavirus
HLA-B*15:01 [17] = test: as above; settings: source organism: Sudan ebolavirus
HLA-A*69:01 [18] = test: IEDB peptide-MHC binding, purified MHC/competitive/fluorescence; filed as Kd, often an IC50 or EC50 that approximates it; ≥ and ≤ were set here for values at or beyond the usual limits of such assays; settings: source organism: Sudan ebolavirus
HLA-B*39:01 [19] = test: as above; settings: source organism: Sudan ebolavirus
HLA-B*57:01 [20] = test: as above; settings: source organism: Sudan ebolavirus
HLA-B*27:03 [21] = test: as above; settings: source organism: Sudan ebolavirus
HLA-B*46:01 [22] = test: as above; settings: source organism: Sudan ebolavirus
[23] = source organism: Salmonella enterica subsp. enterica serovar Typhimurium str. LT2
[24] = source organism: Mycobacterium tuberculosis str. Haarlem
[25] = source organism: Yersinia pestis Nepal516
[26] = source organism: Salmonella enterica subsp. enterica serovar Typhi
[27] = source organism: Hantaan virus 76-118
[28] = source organism: Sudan ebolavirus

FKYDSTKPL was tested. Which Kd (HLA-A*26:01; [23]) did it give?
Its Kd is at least 20 µM.

And the Kd (HLA-A*23:01)?
Its Kd is at least 20 µM.

And the Kd (HLA-A*02:12; [23])?
Its Kd is at least 20 µM.

And the Kd (HLA-A*24:03; [23])?
Its Kd is at least 20 µM.

What about the Kd (HLA-A*69:01 [1]) of the same sequence?
The Kd was at least 20 µM.

What about the Kd (HLA-B*15:17) of the same sequence?
Its Kd is at least 20 µM.

And the Kd (HLA-B*18:01; [23])?
The Kd was at least 20 µM.

What about the Kd (HLA-A*02:11; [23]) of the same sequence?
The Kd was at least 20 µM.

What about the Kd (HLA-A*02:19; [23]) of the same sequence?
Its Kd is at least 20 µM.

And the Kd (HLA-A*68:02; [23])?
The Kd was at least 20 µM.

And the Kd (HLA-B*57:01 [2])?
The Kd was at least 20 µM.

And the Kd (HLA-A*03:01 [3]; [23])?
Its Kd is at least 20 µM.

What about the Kd (HLA-B*51:01 [4]; [23]) of the same sequence?
The Kd was at least 20 µM.

What about the Kd (HLA-A*02:01 [5]; [23]) of the same sequence?
Its Kd is at least 20 µM.

And the Kd (HLA-A*02:16; [23])?
The Kd was at least 20 µM.

What about the Kd (HLA-A*02:03; [23]) of the same sequence?
The Kd was at least 20 µM.

What about the Kd (HLA-B*27:03 [6]; [23]) of the same sequence?
The Kd was at least 20 µM.

And the Kd (HLA-A*29:02; [23])?
The Kd was at least 20 µM.

And the Kd (HLA-B*46:01 [7]; [23])?
The Kd was at least 20 µM.

And the Kd (HLA-B*15:01 [8]; [23])?
The Kd was at least 20 µM.

LAYARGQAM was tested. Which Kd (HLA-C*03:03; source organism: Human herpesvirus 4 strain B95-8) did it give?
The Kd was at most 0.001 µM.

MAVTAAPYI was tested. Which Kd (HLA-A*26:01; [24]) did it give?
Its Kd is at least 20 µM.

What about the Kd (HLA-A*02:12; [24]) of the same sequence?
Its Kd is at least 20 µM.

And the Kd (HLA-A*24:03; [24])?
Its Kd is at least 20 µM.

And the Kd (HLA-B*18:01; [24])?
The Kd was at least 20 µM.

And the Kd (HLA-A*02:11; [24])?
The Kd was at least 20 µM.

What about the Kd (HLA-A*02:19; [24]) of the same sequence?
Its Kd is at least 20 µM.

What about the Kd (HLA-B*39:01 [9]) of the same sequence?
The Kd was at least 20 µM.

What about the Kd (HLA-A*03:01 [3]; [24]) of the same sequence?
The Kd was at least 20 µM.

And the Kd (HLA-B*51:01 [4]; [24])?
The Kd was 0.103 µM.

What about the Kd (HLA-A*02:01 [5]; [24]) of the same sequence?
The Kd was at least 20 µM.

What about the Kd (HLA-A*02:16; [24]) of the same sequence?
Its Kd is at least 20 µM.

And the Kd (HLA-A*02:03; [24])?
Its Kd is at least 20 µM.

What about the Kd (HLA-B*27:03 [6]; [24]) of the same sequence?
The Kd was at least 20 µM.

And the Kd (HLA-A*29:02; [24])?
The Kd was at least 20 µM.

What about the Kd (HLA-B*46:01 [7]; [24]) of the same sequence?
The Kd was at least 20 µM.

And the Kd (HLA-B*15:01 [8]; [24])?
Its Kd is at least 20 µM.

Which results are given for MTSELAALI?
Kd (HLA-C*08:02; [25]): 0.415 µM; Kd (HLA-B*58:01): 0.0225 µM; Kd (HLA-A*01:01 [10]): ≥ 20 µM; Kd (HLA-B*51:01 [11]; [25]): ≥ 20 µM; Kd (HLA-A*02:01 [12]; [25]): 0.0073 µM

What does the source list for STFDLYVYR?
Kd (HLA-B*15:42; [26]): ≥ 5 µM; Kd (HLA-B*83:01): ≥ 5 µM; Kd (HLA-B*45:06; [26]): ≥ 5 µM; Kd (HLA-A*31:01): 0.0243 µM; Kd (HLA-A*68:23): 0.0139 µM; Kd (HLA-C*04:01; [26]): ≥ 5 µM; Kd (HLA-A*03:01 [13]): 3.21 µM; Kd (HLA-B*15:01 [14]): ≥ 20 µM

With TPGRYRTAV as the sequence, how does the Kd (HLA-B*07:02) read?
Its Kd is at most 0.001 µM.

And the Kd (HLA-B*51:01 [4]; source organism: Orthohantavirus hantanense)?
The Kd was at least 20 µM.

And the Kd (HLA-B*15:42; [27])?
Its Kd is at least 5 µM.

What about the Kd (HLA-B*45:06; [27]) of the same sequence?
Its Kd is at least 5 µM.

What about the Kd (HLA-C*04:01; [27]) of the same sequence?
The Kd was at least 5 µM.

Which Kd (HLA-C*03:03; source organism: Rickettsia sibirica 246) does the source give for YISPIFIPM here?
The Kd was at most 0.001 µM.

For YTENTSSYY, which IC50 (HLA-A*01:01 [15]) is on record?
The IC50 was 0.927 µM.

And the IC50 (HLA-A*02:01 [16])?
The IC50 was at least 213 µM.

And the IC50 (HLA-B*15:01 [17])?
Its IC50 is 23.1 µM.

And the Kd (HLA-A*26:01; source organism: Sudan virus - Boniface, Sudan,1976)?
The Kd was 0.007 µM.

What about the Kd (HLA-A*02:12; [28]) of the same sequence?
Its Kd is at least 20 µM.

And the Kd (HLA-A*24:03; [28])?
The Kd was at least 20 µM.

What about the Kd (HLA-A*02:11; [28]) of the same sequence?
The Kd was at least 20 µM.

What about the Kd (HLA-A*02:19; [28]) of the same sequence?
The Kd was at least 20 µM.

And the Kd (HLA-A*68:02; [28])?
The Kd was at least 20 µM.

What about the Kd (HLA-A*03:01 [3]; [28]) of the same sequence?
The Kd was at least 20 µM.

What about the Kd (HLA-A*02:16; [28]) of the same sequence?
The Kd was at least 20 µM.

What about the Kd (HLA-A*02:03; [28]) of the same sequence?
Its Kd is at least 20 µM.

What about the Kd (HLA-C*08:02; [28]) of the same sequence?
Its Kd is at least 20 µM.

What about the Kd (HLA-A*69:01 [18]) of the same sequence?
Its Kd is at least 20 µM.

And the Kd (HLA-B*39:01 [19])?
The Kd was at least 20 µM.

And the Kd (HLA-B*57:01 [20])?
Its Kd is at least 20 µM.

And the Kd (HLA-B*51:01 [11]; [28])?
The Kd was at least 20 µM.

And the Kd (HLA-A*02:01 [12]; [28])?
Its Kd is at least 20 µM.

What about the Kd (HLA-B*27:03 [21]) of the same sequence?
The Kd was at least 20 µM.

What about the Kd (HLA-B*46:01 [22]) of the same sequence?
Its Kd is at least 20 µM.
